B1: Wild-type BM-3: wild-type cytochrome P450 BM-3 from Bacillus megaterium, SEQ ID NO:1 (protein, listed as Bacillus megaterium)
chain: TIKEMPQPKTFGELKNLPLLNTDKPVQALMKIADELGEIFKFEAPGRVTRYLSSQRLIKEACDESRFDKNLSQALKFVRDFAGDGLFTSWTHEKNWKKAHNILLPSFSQQAMKGYHAMMVDIAVQLVQKWERLNADEHIEVPEDMTRLTLDTIGLCGFNYRFNSFYRDQPHPFITSMVRALDEAMNKLQRANPDDPAYDENKRQFQEDIKVMNDLVDKIIADRKASGEQSDDLLTHMLNGKDPETGEPLDDENIRYQIITFLIAGHETTSGLLSFALYFLVKNPHVLQKAAEEAARVLVDPVPSYKQVKQLKYVGMVLNEALRLWPTAPAFSLYAKEDTVLGGEYPLEKGDELMVLIPQLHRDKTIWGDDVEEFRPERFENPSAIPQHAFKPFGNGQRACIGQQFALHEATLVLGMMLKHFDFEDHTNYELDIKETLTLKPEGFVVKAKSKKIPLGGIPSPSTEQSAKKVRKKAENAHNTPLLVLYGSNMGTAEGTARDLADIAMSKGFAPQVATLDSHAGNLPREGAVLIVTASYNGHPPDNAKQFVDWLDQASADEVKGVRYSVFGCGDKNWATTYQKVPAFIDETLAAKGAENIADRGEADASDDFEGTYEEWREHMWSDVAAYFNLDIENSEDNKSTLSLQFVDSAADMPLAKMHGAFSTNVVASKELQQPGSARSTRHLEIELPKEASYQEGDHLGVIPRNYEGIVNRVTARFGLDASQQIRLEAEEEKLAHLPLAKTVSVEELLQYVELQDPVTRTQLRAMAAKTVCPPHKVELEALLEKQAYKEQVLAKRLTMLELLEKYPACEMKFSEFIALLPSIRPRYYSISSSPRVDEKQASITVSVVSGEAWSGYGEYKGIASNYLAELQEGDTITCFISTPQSEFTLPKDPETPLIMVGPGTGVAPFRGFVQARKQLKEQGQSLGEAHLYFGCRSPHEDYLYQEELENAQSEGIITLHTAFSRMPNQPKTYVQHVMEQDGKKLIELLDQGAHFYICGDGSQMAPAVEATLMKSYADVHQVSEADARLWLQQLEEKGRYAKDVWAG
B2: P450PMO: P450 BM-3 variant, SEQ ID NO:125; 7-7 plus G443A and D698G; propane monooxygenase (protein)
chain: TIKEMPQPKTFGELKNLPLLNTDKPVQALMKIADELGEIFKFEAPGCVTRYISSQRLIKEACDESRFDKNLSQELKFFRDFGGDGLFTSWTHEINWKKAHNILLPSFSQQAMKGYHAMMVDIAVQLVQKWERLNADEHIEVSEDMTRLTLDTIGLCGFNYRFNSFYRDQPHPFIISMVRALDEVMNKPQRANPDDPAYDENKRQCQEDIKVMNDLVDKIIADRKARGEQSDDLLTQMLNGKDPETGEPLDDGNISYQIITFLIAGHETTSGLLSFALYFLVKNPHVLQKVVEEAARVLVDPVPSYKQVKQLKYVGMVLNEALRLWPTFPAFSLYAKEDTVLGGEYPLEKGDEVMVLIPQLHRDKTVWGDDVEEFRPERFENPSAIPQHAFKPFGNGQRACIGQQFALHEATLVLGMMLKHFDFEDHTNYELDIKETLTLKPEAFVVKAKSKKIPLGGIPSPSTGQSAKKVRKKAENAHNTPLLVLYGSNMGTAEGTARDLADIAMSKGFAPQVATLDSHAGNLPREGAVLIVTASYNGHPPDNAKQFVDWLDQASADEVKGVRYSVFGCGDKNWATTYQKVPAFIDETLAAKGAENIADRGEADASDDFEGTYEEWREHMWSDVAAYFNLDIENSEDNKSTLSLQFVDSAADMPLAKMHGAFSTNVVASKELQQPGSARSTRHLEIELPKEASYQEGGHLGVIPRNYEGTVNRVTARFGLDASQQIRLEAEEEKLAHLPLAKTVSVEELLQYVELQDPVTRTQLRAMAAKTVCPPHKVELEALLEKQAYKEQVLAKRLTMLELLEKYPACEMKFSEFIALLPSIRPRYYSISSSPRVDEKQASITVSVVSGEAWSGYGEYKGIASNYLAELQEGDTITCFISTPQSEFTLPKDPETPLIMVGPGTGVAPFRGFVQARKQLKEQGQSLGEAHLYFGCRSPHEDYLYQEELENAQSEGIITLHTAFSRMPNQPKTYVQHVMEQDGKKLIELLDQGAHFYICGDGSQMAPAVEATLMKSYADVHQVSEADARLWLQQLEEKGRYAKDVWAG
modifications: Mutant P450PMO protein sequence
notes: 7-7 plus G443A and D698G; propane monooxygenase

Assays:
[1] = Substrate profile on C2 to C10 alkanes (TTN normalized, MTN); format: biochemical; conditions: highest TTN in the alkane series
Experimental: Reactions on alkanes. Reactions with alkanes from pentane to decane were carried out at 3 mL-scale using 100 mM KPi pH 8.0 buffer containing 2% ethanol (to allow alkane solubilization) and purified protein. 2.5 mL KPi buffer were added with 60 μL of 90 mM alkane solution in ethanol (final conc.=1.8 mM), 150 μL enzyme solution at 1 μM (final conc.=50 nM), and 300 μL NADPH regeneration solution (100 units/mL isocitrate dehydrogenase, 70 mg/mL isocitrate, 1.5 mg/ml NADP^+). Vials were sealed and stirred for 24 hours at 4° C. 1 mL-aliquot of the reaction was removed, added with 10 μl internal standard (25 mM 1-bromohexane in ethanol), and extracted with 200 μl chloroform (30 sec vortexing, 1 min centrifugation at 10000 g). The organic phase was removed and analyzed by gas chromatography. Reactions with ethane, propane, and butane were carried out as described for longer alkanes with the only difference that alkane-saturated KPi buffer was used. […] Propane and butane reactions were analyzed by direct injection of reaction solution on the GC using 1-pentanol as internal standard. Ethane reaction products were functionalized (see below) and analyzed by GC using 1-butanol as internal standard. […]
TTNs for each variant-substrate pair were determined using standardized reaction conditions (identical enzyme and substrate concentration, incubation time, cofactor regeneration system) (Table 18). […]

[2] = Halomethane reactions (formaldehyde, PFBHA, GC-ECD): bromomethane; format: biochemical
Experimental: Halomethane reactions: Reactions with chloromethane, bromomethane, and iodomethane were carried out in 1 mL-scale using halomethane-saturated buffer (100 mM phosphate pH 8.0) and 50-500 nM purified protein. 900 μL buffer were added with protein, incubated for 15 seconds, and then added with 100 μL NADPH regeneration solution (100 units/mL IDH, 70 mg/mL isocitrate, 1.5 mg/ml NADP+). Solution were sealed and stirred for 30 minutes at 25° C. To reduce background levels of formaldehyde to a minimum, buffers were prepared using HPLC-grade water and autoclaved twice prior to use. Formaldehyde concentration in the reaction solutions was determined through derivatization with o-(2,3,4,5,6-pentafluorobenzyl)hydroxylamine hydrochloride (PFBHA) and gas chromatography. […] Organic phase was removed, diluted 1/100 v/v, and analyzed on a Shimadzu GC-17A gas chromatograph. […] Quantification was carried out using a calibration curve and solutions at known concentration of formaldehyde. […]
Along with activity on propane, P450PMO also hydroxylates ethane (TTN˜2,500), despite ethane's higher C—H bond energy (101.0 kcal mol^−1 versus 98.6 kcal mol^−1 for propane). […] Reactions with purified P450 variants and the halomethanes were analyzed for formaldehyde formation (FIG. 42). […] Activity on chloromethane was detected at lower levels (0.5-1% of propane activity) and in fewer P450 variants. […]

Row | Molecule | MTN (Maximal Turnover Number) [1] | turnover rates, halomethane dehalogenase activities ([2]; CH3Cl, CH3Br, CH3I, estimated from 30 minute-reactions) | bromomethane dehalogenase activity ([2]; formaldehyde formation)
1 | B1 | 150 |  | 
2 | B2 |  | 0.5-5 min^−1 | 1-5 % of the propane activity
